Data published in the supplement of paper PMC7877785.
± gives the uncertainty stated by the source.

Assay: self-splicing fitness, log relative to wild type (ln ratio); higher = more splicing; Tetrahymena group I intron in knt gene, E. coli kanamycin selection, DiMSum; sequences stand for … in CUCUCU…GGAGGGAAAAGUUAUCAGGCAUGCACCUGGUAGCUAGUCUUUAAACCAAUAGAUUGCAUCGGUUUAAAAGGCAAGACCGUCAAAUUGCGGGAAAGGGGUCAACAGCCGUUCAGUACCAAGUCUCAGGGGAAACUUUGAGAUGGCCUUGCAAAGGGUAUGGUAAUAAGCUGACGGACAUGGUCCUAACCACGCAGCCAAGUCCUAAGUCAACAGAUCUUCUGUUGAUAUGGAUGCAGUUCACAGACUAAAUGUCGGUCGGGGAAGAUGUAUUCUUCUCAUAAGAUAUAGUCGGACCUCUCCUUAAUGGGAGCUAGCGGAUGAAGUGAUGCAACACUGGAGCCGCUGGGAACUAAUUUGUAUGCGAAAGUAUAUUGAUUAGUUUUGGAGUACUCGUGGUCG
Summary of the method: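 The eight P1ex-region nucleotides of an intron in the knt kanamycin-resistance gene on pET-22b(+) were all randomised and the library put into E. coli BL21(DE3). Six replicate transformations were grown overnight at 37°C or 30°C on LB agar with or without 25 μg/mL kanamycin, together with 100 μg/mL carbenicillin, 50 μM IPTG and 0.2% rhamnose. Colonies were pooled and amplicon-sequenced on an Illumina HiSeq 2500. Fitness from DiMSum is the error-weighted combination of wild-type-normalised replicate fold changes, kanamycin over none.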

Sequence	self-splicing fitness (ln) (30 °C)	self-splicing fitness (ln) (37 °C)
UCUGAGCAAUAUUACGCUGC	-2.24 ± 0.37	-1.46 ± 0.34
GUAUAGCAAUAUUACGACGA	-1.78 ± 0.24	-0.483 ± 0.19
UGGUAGCAAUAUUACGUCUG	-0.683 ± 0.11	0.409 ± 0.17
UCAUAGCAAUAUUACGCUAC	-2.17 ± 0.21	-3.42 ± 0.29
AAUAAGCAAUAUUACGAGCC	-3.73 ± 0.29	-1.64 ± 0.22
CGAAAGCAAUAUUACGUUAG	-0.97 ± 0.068	-0.895 ± 0.082
AGGGAGCAAUAUUACGUAAA	-3.55 ± 0.31	-2.73 ± 0.44
AUAGAGCAAUAUUACGUGUC	-2.81 ± 0.33	-2.17 ± 0.36
UGUCAGCAAUAUUACGUCCG	-0.177 ± 0.17	0.083 ± 0.2
GCUCAGCAAUAUUACGCCUA	-0.718 ± 0.23	-0.514 ± 0.22
UCGAAGCAAUAUUACGUGGU	-3.51 ± 0.18	-2.88 ± 0.24
UCUUAGCAAUAUUACGGCCU	-3.85 ± 0.46	
GCCGAGCAAUAUUACGCAUC	-2.54 ± 0.24	-1.48 ± 0.28
AUCUAGCAAUAUUACGGAUU	-4.46 ± 0.32	-2.38 ± 0.23
CGAUAGCAAUAUUACGGCAG	-0.958 ± 0.087	-0.344 ± 0.12
CGCUAGCAAUAUUACGACCG	-1.12 ± 0.11	-0.347 ± 0.15
AUCAAGCAAUAUUACGCCAA	-1.99 ± 0.16	-0.947 ± 0.13
UCCCAGCAAUAUUACGCGCA	-0.296 ± 0.093	-0.219 ± 0.089
ACGUAGCAAUAUUACGGCCG	-0.0843 ± 0.13	-0.11 ± 0.19
CCGAAGCAAUAUUACGGCCG	-0.396 ± 0.099	-0.442 ± 0.12
GGCAAGCAAUAUUACGCGCC		-1.77 ± 0.28

Sequence	self-splicing fitness (ln) (30 °C)	self-splicing fitness (ln) (37 °C)
UAUUAGCAAUAUUACGACGC	-2.92 ± 0.48	-2.18 ± 0.38
GCAAAGCAAUAUUACGUGGA	-2.07 ± 0.14	-2.36 ± 0.16
CCCAAGCAAUAUUACGACUG	-3.41 ± 0.14	-3.49 ± 0.23
GACAAGCAAUAUUACGCAUC	-4.33 ± 0.28	-3.91 ± 0.42
AAAUAGCAAUAUUACGUGAU	-2.26 ± 0.099	-1.89 ± 0.11
CGGCAGCAAUAUUACGUCCA	-0.34 ± 0.1	-0.521 ± 0.14
AAAGAGCAAUAUUACGGGUC	-3.24 ± 0.21	-3.09 ± 0.37
AUUCAGCAAUAUUACGUCGA	-0.991 ± 0.085	-0.503 ± 0.097
GAUAAGCAAUAUUACGACUU	0.544 ± 0.08	0.0887 ± 0.095
GAUUAGCAAUAUUACGCGCA	-0.548 ± 0.12	0.433 ± 0.11
CGGCAGCAAUAUUACGCCAU	-3.11 ± 0.2	-1.6 ± 0.16
UGAGAGCAAUAUUACGCCAG	-3.52 ± 0.42	-2.41 ± 0.35
UAGCAGCAAUAUUACGGCGC	-2.08 ± 0.23	0.611 ± 0.23
ACUCAGCAAUAUUACGUACC	-1.39 ± 0.09	0.482 ± 0.13
GAGAAGCAAUAUUACGAUAU	-2.18 ± 0.16	-0.855 ± 0.15
CAUUAGCAAUAUUACGAGGG	-3.1 ± 0.18	-2 ± 0.21
AACCAGCAAUAUUACGGCGG	-0.585 ± 0.059	-0.164 ± 0.078
GCACAGCAAUAUUACGAUUA	-1.38 ± 0.087	-0.549 ± 0.086
UAAGAGCAAUAUUACGCUGG	-2.31 ± 0.26	-2.37 ± 0.27
UUGGAGCAAUAUUACGGUUA	-2.08 ± 0.45	-1.49 ± 0.25
UCCUAGCAAUAUUACGUUGG	-3.74 ± 0.27	-2.35 ± 0.2

Sequence	self-splicing fitness (ln) (30 °C)	self-splicing fitness (ln) (37 °C)
AUUUAGCAAUAUUACGGCUG	-0.937 ± 0.12	-0.723 ± 0.13
GUCGAGCAAUAUUACGUGGA		-2.46 ± 0.26
CUACAGCAAUAUUACGUUAU	-3.96 ± 0.13	-2.79 ± 0.15
GGCGAGCAAUAUUACGAGCA	-1.44 ± 0.25	-0.374 ± 0.28
GGUAAGCAAUAUUACGAACU	-1.25 ± 0.25	-1.67 ± 0.36
UUGUAGCAAUAUUACGCAUA	-1.81 ± 0.16	-1.31 ± 0.15
CAUGAGCAAUAUUACGGCGU	-3.61 ± 0.47	-1.97 ± 0.34
AACAAGCAAUAUUACGCUUG	-2.82 ± 0.12	-2.28 ± 0.16
AGCGAGCAAUAUUACGGCGC	-2.72 ± 0.22	-1.98 ± 0.2
GUUGAGCAAUAUUACGCGGA		-0.744 ± 0.35
AGGAAGCAAUAUUACGAGGA	-2.39 ± 0.29	-2.32 ± 0.22
CACAAGCAAUAUUACGUUUC	-3.53 ± 0.19	-1.8 ± 0.17
CAGGAGCAAUAUUACGACAU	-3.768 ± 0.031	-2.94 ± 0.046
CUCUAGCAAUAUUACGAUCG	-1.57 ± 0.081	-0.281 ± 0.12
UAUUAGCAAUAUUACGUCCC	-2.83 ± 0.42	-0.713 ± 0.46
ACAGAGCAAUAUUACGAUCG	-2.71 ± 0.18	-1.88 ± 0.23
GACAAGCAAUAUUACGUUAC	-3.32 ± 0.15	-2.36 ± 0.17
UUAAAGCAAUAUUACGCUGU	-1.31 ± 0.16	-1.68 ± 0.2
UCAAAGCAAUAUUACGGUCG	-0.405 ± 0.069	-0.439 ± 0.094
